Positions count from the first letter of the chain named. Where no end group is shown, it is not given here.
How the values were obtained:
[1] = target: YEATS domain of Yaf9 (aa 8–171), wild type (S. cerevisiae) (UniProt P53930); test: other fluorescence titration
[2] = target: T1, YEATS domain of Yaf9 (WT, aa 8–171) (Saccharomyces cerevisiae, UniProt P53930); test: 1H,15N HSQC NMR titration, Yaf9 YEATS WT; type: binding; settings: free acetyllysine (NMR) vs H3K27ac peptide
T1 sequence (P53930 8-171): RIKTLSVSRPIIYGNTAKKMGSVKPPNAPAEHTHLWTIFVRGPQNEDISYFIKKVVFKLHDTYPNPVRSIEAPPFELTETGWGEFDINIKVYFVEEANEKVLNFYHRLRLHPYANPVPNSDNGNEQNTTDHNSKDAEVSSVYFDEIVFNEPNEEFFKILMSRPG

[3] = target: T2, YEATS domain of Taf14 (aa 1–137), wild type (yeast, UniProt P35189 1-137); test: other fluorescence titration
T2 sequence (looked up): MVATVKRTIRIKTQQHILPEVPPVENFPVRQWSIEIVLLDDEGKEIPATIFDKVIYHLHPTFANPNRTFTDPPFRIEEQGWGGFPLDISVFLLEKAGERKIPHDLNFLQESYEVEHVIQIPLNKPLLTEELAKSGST

[4] = target: T3, G83E mutant of Taf14-YEATS (aa 1–137) (yeast, UniProt P35189 1-137, G83E); test: other fluorescence titration
T3 sequence (looked up): T2 sequence (looked up) with G83E

[5] = target: T4, D104R mutant of Taf14-YEATS (aa 1–137) (yeast, UniProt P35189 1-137, D104R); test: other fluorescence titration
T4 sequence (looked up): T2 sequence (looked up) with D104R

[6] = target: T5, AF9 YEATS domain (aa 1–138), wild type (human, UniProt P42568 1-138); test: other fluorescence titration
T5 sequence (looked up): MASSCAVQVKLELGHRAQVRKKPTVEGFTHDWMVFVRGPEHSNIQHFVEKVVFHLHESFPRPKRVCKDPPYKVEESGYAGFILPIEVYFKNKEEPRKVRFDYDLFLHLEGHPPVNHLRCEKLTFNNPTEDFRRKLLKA

[7] = target: T6, E91G mutant of Yaf9-YEATS (aa 8–171) (S. cerevisiae, UniProt P53930 8-171, E91G); test: other fluorescence titration
T6 sequence (looked up): T1 sequence (P53930 8-171) with E84G

histone H3K27ac peptide (aa 21–31 of H3) (from UniProt P68431 22-32)
Kd [1]: 10 µM

CC(=O)NCCCC[C@H](N)C(=O)O [Kac, acetyllysine]
binding of free acetyllysine weaker [2]: over 200 fold

B1: histone H3K9ac peptide (aa 5–13 of H3) (peptide, UniProt P68431 6-14, looked up)
peptide: QTARK(Ac)STGG
modifications: also: biotinylated, site not given here
binding result [3]: binds
fold decrease in binding against WT Taf14-YEATS [4]: ~2 fold
binding result [5]: binds
binding result [6]: binds
fold increase in binding against WT Yaf9-YEATS [7]: ~1.5 fold
